The results in this text go back to patent US20030125311A1, “Compounds capable of binding with the cytoskeleton” (priority 2002, published 2003).

For this test, the system named is binding sites of PREG [3H] in brain cytosol. Description: Effects of hydrolytic enzymes on the binding of PREG [3H] in cytosol. Particulars: for % of Control (binding of PREG [3H]): cytosol incubated with enzyme at 37° C. for 30 min, mean±standard error, n=3. Details: species or system rat. The procedure:
Proteinase K (Merck, Darmstadt, Germany) and Pronase® are dissolved at 1 mg/ml in TNM buffer containing 10 mM of Tris, 0.1M of NaCl, 3 mM of MgCl2 (pH 7.4). Deoxyribonuclease I and ribonuclease A are products of Sigma-Aldrich and are respectively adjusted to 100 IU/ml and 5 IU/ml. Phospholipase A2 (Roche Molecular Biochemicals) is diluted to 20 IU/ml in TNM.
1 ml of brain cytosol is incubated with 0.2 ml of an enzyme solution at 37° C. for 30 min. The binding activity is studied of samples (0.2 ml) which had undergone the enzyme treatment or control samples diluted with buffer only.
To study the effects of hydrolytic enzymes on the binding of PREG [^3H], samples of 1 ml of cytosol incubated with 0.2 ml of an enzyme solution at 37° C. for 30 min were used. The results obtained, expressed as % of the control incubation (cytosol diluted in a buffer) are reported in Table 1 (mean±standard error, n=3).

B1: Proteinase K: hydrolytic enzyme (Merck) used to treat cytosol (protein, UniProt P06873 106-384, looked up)
Proteinase K: AAQTNAPWGLARISSTSPGTSTYYYDESAGQGSCVYVIDTGIEASHPEFEGRAQMVKTYYYSSRDGNGHGTHCAGTVGSRTYGVAKKTQLFGVKVLDDNGSGQYSTIIAGMDFVASDKNNRNCPKGVVASLSLGGGYSSSVNSAAARLQSSGVMVAVAAGNNNADARNYSPASEPSVCTVGASDRYDRRSSFSNYGSVLDIFGPGTSILSTWIGGSTRSISGTSMATPHVAGLAAYLMTLGKTTAASACRYIADTANKGDLSNIPFGTVNLLAYNNYQA
For B1, the “% of Control (binding of PREG [3H])” value amounted to 42.4 ± 7.5%. Also, for the setting “enzyme treatment of cytosol”, the “binding sites of PREG [3H] destroyed” value is on record as 60%.

B2: Ribonuclease A: hydrolytic enzyme (Sigma-Aldrich) used to treat cytosol (protein, UniProt P61823 27-150, looked up)
Ribonuclease pancreatic: KETAAAKFERQHMDSSTSAASSSNYCNQMMKSRNLTKDRCKPVNTFVHESLADVQAVCSQKNVACKNGQTNCYQSYSTMSITDCRETGSSKYPNCAYKTTQANKHIIVACEGNPYVPVHFDASV
Turning to B2, the “% of Control (binding of PREG [3H])” value stood at 82.4 ± 9.2%. Further, the “effect on binding sites of PREG [3H] (in words)” value (enzyme treatment of cytosol) is “no significant effect”.
